# Data from US20200129582A1, “NOVEL PEPTIDES AND PEPTIDOMIMETICS” (UNIVERSITY OF AUCKLAND, priority 2016, published 2020).
# Residues, ends and D or L forms follow the SMILES beside them.
# Assays:
# Solubility in miliQ H2O = assay type: physicochemical
# Method: For cell scrape load—dye coupling assays of gap junctions, induced protein distribution changes and ATP release studies of hemichannel block, Connexin43 mimetic peptide (Peptide5, sequence VDCFLSRPTEKT (SEQ ID NO: 45)) (Auspep, Australia) was synthesized at purity >95% and dissolved in miliQ H2O at a stock concentration of 10 mM. For competition assays extracellular loop matching peptides were custom synthesised and dissolved in miliQ H2O at a stock concentration of 1 mM according to purity supplied by the manufacturer (Auspep, Australia). For Peptide5 sequence substitution studies, peptides were generated in the School of Chemical Sciences, University of Auckland. The peptides were prepared using Fmoc solid phase synthesis. Fmoc-Thr(tBu)-OH or Fmoc-Ala-OH pre-loaded to the HMPP linker and attached to in-house prepared aminomethyl PS resin 2.1 (using DIC in DMF). This was followed by alternating de-protection and coupling reactions using 5% piperazine containing 0.1 M 6-Cl-HOBt and HBTU and NMM respectively via automated Tribute Fmoc-SPPS. Resin cleavage using TFA afforded crude products, which underwent purification via semi-preparative RP-HPLC. Peptides were obtained in high purity (>95%) and with good yields (17%-46%). All alanine substituted analogues were miliQ H2O soluble (Table 5).
# Peptide5 interacting site on the Connexin43 protein was determined using a competition assay. […]
# [1] = molecular target: T1, Connexin43 plaques in ARPE-19 cells (Homo sapiens, UniProt P17302); assay: Immunocytochemistry and quantification of Cx43 plaques; assay type: cell-based; settings: 2- or 6-hour treatment, Peptide5 50-500 μM, LaCl3 and CBX 500 μM
# T1 construct: a cell line with high endogenous expression of connexin43; endogenous in cells; host or cells: ARPE-19
# T1 sequence (P17302 2-382 limits assumed): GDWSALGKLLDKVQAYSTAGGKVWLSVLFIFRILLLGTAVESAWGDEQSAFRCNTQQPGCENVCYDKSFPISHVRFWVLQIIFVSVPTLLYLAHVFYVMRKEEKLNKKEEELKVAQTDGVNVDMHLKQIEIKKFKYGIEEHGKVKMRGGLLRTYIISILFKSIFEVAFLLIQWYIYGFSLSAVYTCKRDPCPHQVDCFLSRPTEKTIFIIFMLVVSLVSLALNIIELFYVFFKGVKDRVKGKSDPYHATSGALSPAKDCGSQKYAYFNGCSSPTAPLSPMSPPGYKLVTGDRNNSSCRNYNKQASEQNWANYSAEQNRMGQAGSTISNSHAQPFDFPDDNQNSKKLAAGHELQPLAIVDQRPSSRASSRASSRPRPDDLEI
# Method: (§1) ARPE-19 cells were grown until confluent in 8-well glass chamber-slides (BD Falcon). Confluent monolayers of ARPE-19 cells were incubated at a final concentration of 50 to 500 μM Peptide5, 500 μM LaCl3 and 500 μM CBX in culture medium for 2 or 6 hours. Cells were fixed in 4% PFA (ProSciTech) at pH 7.4 for 10 min at room temperature, permeabilized with 0.05% Triton-X100 in PBS, and incubated in 10% normal goat serum to block non-specific labelling. Cells were rinsed three times with PBS containing 0.1 mM CaCl2 between each fixation, permeabilization, and blocking steps. Connexin43 polyclonal rabbit antibody (C6219, Sigma, 1:2000) was applied overnight, followed by a goat anti-rabbit Alexa Fluor® 568 secondary antibody (Invitrogen, 1:200) for 45 minutes. Nuclei were counterstained with DAPI (Invitrogen) at 10,000-fold dilution for 5 mins, and mounted with Citifluor™ mounting medium. Images were visualised and captured using an oil immersion lens (60× magnification, 1.35 numerical aperture) on an Olympus FV1000 upright confocal laser scanning microscope and Olympus FV10-ASW 4.0 software. The Transfluor feature in MetaXpress® Image acquisition and analysis software (Version 5.3.0.1, Molecular Devices) was used to quantify the total area of Connexin43 plaques per image.
# as §1
# [2] = molecular target: T2, hemichannel-mediated ATP release from hCMVEC cells (Homo sapiens, UniProt P17302); assay: In vitro ischemia injury ATP release assay (single alanine substituted and truncated peptides); assay type: cell-based
# T2 construct: endogenous in cells; host or cells: hCMVEC (human cerebral microvascular endothelial cells)
# T2 sequence (P17302 2-382 limits assumed): as above
# Method: The human cerebral endothelial cells (hCMVEC) were plated at a density of 0.025×10^6 cells per well in a collagen-coated 12-well plate (1 μg/cm^2) a day prior to the experiment. Cells were incubated in culture medium overnight. Hypoxic, acidic, ion-shifted Ringer injury solution that mimics ionic concentrations and acid-base shifts of the interstitial space in hypoxic-ischemic brains (Bondarenko and Chesler, 2001, […]) was used to trigger hemichannel opening. The injury solution contained (in mM): 38 NaCl, 13 NaHCO3, 3 Na-gluconate, 65 K-gluconate, 38 NMDG-Cl, 1 NaH2PO4, and 1.5 MgCl2. The injury solution was bubbled in 95% N2, 5% CO2 gas (20 L/min) for 5 minutes and pH adjusted to 6.6 before use. The standard ringer solution contained (in mM): 124 NaCl, 3 KCl, 26 NaHCO3, 26 NaHCO3, 1 NaH2PO4, 1.3 CaCl2, 1.5 MgCl2, and 10 Glucose, and pH adjusted to 7.4 before use (Bondarenko and Chesler, 2001). In the ischemia injury model, hCMVEC cells were incubated for 2 hours in 500 μL injury solution+/−Peptide5 (100 μM) (O'Carroll et al., 2008, Cell communication & adhesion 15:27-42; Danesh-Meyer et al., 2012, Brain: a journal of neurology 135:506-520; Davidson et al., 2012, Annals of neurology 71:121-132; Davidson et al., 2013, Experimental neurology 248:301-308; Davidson et al., 2014, PloS one 9:e96558; Davidson et al., 2015, J Cereb Blood Flow Metab), or +/−extracellular loop sequences (Table 5), or modified peptides (Table 2, 3) dissolved in injury solution (500 μL) with a final concentration of 100 μM. For negative control, hCMVEC cells were incubated only in 500 μL standard ringer solution for 2 hours. For positive control, hCMVEC cells were incubated only in 500 μL […] for 2 hours. All incubations were conducted at 37° C. in 95% O2 and 5% CO2. At the end of each experiment, samples were removed and immediately placed on ice. The concentration of ATP in the samples was determined using a Luciferin/luciferase bioluminescence reaction (ATP Determination Kit, Molecular Probes) and detected using a luminescence plate reader (VICTOR X, Perkin Elmer #2030-0010). Standard curves were generated in each experiment from an ATP standard (0 to 500 nM) to convert bioluminescence units to ATP concentration. […] The data is presented as mean±standard error relative to the injury or injury-reperfusion positive control. Statistically significant differences between samples were tested using one-way analysis of variance and Tukey's multiple comparisons test.
# Peptides listed in table 5 and 2 were assessed using the ischemia injury model in hCMVEC cells as described above, and the medium was collected for ATP release measurement.
# The human cerebral endothelial cells (hCMVEC) were plated at a density of 0.025×10^6 cells per well in a collagen-coated 12-well plate (1 μg/cm^2) a day prior to the experiment. Cells were incubated in culture medium overnight. Hypoxic, acidic, ion-shifted Ringer injury solution that mimics ionic concentrations and acid-base shifts of the interstitial space in hypoxic-ischemic brains (Bondarenko and Chesler, 2001) was used to trigger hemichannel opening. The injury solution contained (in mM): 38 NaCl, 13 NaHCO3, 3 Na-gluconate, 65 K-gluconate, 38 NMDG-Cl, 1 NaH2PO4, and 1.5 MgCl2. The injury solution was bubbled in 95% N2, 5% CO2 gas (20 L/min) for 5 minutes and pH adjusted to 6.6 before use. The standard ringer solution contained (in mM): 124 NaCl, 3 KCl, 26 NaHCO3, 26 NaHCO3, 1 NaH2PO4, 1.3 CaCl2, 1.5 MgCl2, and 10 Glucose, and pH adjusted to 7.4 before use (Bondarenko and Chesler, 2001).
# [3] = molecular target: T3, coupled gap junction channels in hCMVEC cells (Homo sapiens, UniProt P17302); assay type: cell-based; settings: hCMVEC, 100 μM, FIG. 5
# T3 construct: A confluent monolayer of hCMVECs was pre-incubated in Peptide5; endogenous in cells; host or cells: hCMVEC
# Method: (§2) The hCMVEC cells were plated in 1 μg/cm^2 collagen I (Gibco) 12-well plate at a density of 0.4×10^6 cells per well, and cultured overnight. A confluent monolayer of hCMVECs was pre-incubated in Peptide5 (5-100 μM) dissolved in culture medium for 2 hours or 24 hours. CBX at a concentration of 100 μM was used as a positive control. Cells were washed three times with phosphate buffered saline (PBS) without Ca^2+ or Mg^2+. The cells were then incubated in 0.05% Lucifer Yellow (LY) (Sigma), a fluorescent dye that is transferred through coupled gap junction channels (el-Fouly et al., 1987, Experimental cell research 168:422-430), +/−Peptide5 dissolved in PBS, and scrape-wounded with a size 10 carbon steel surgical blade (Swann-Morton, England). Following 5-minute incubation at 37° C. in 95% O2 and 5% CO2 without light, the 0.05% LY solution was removed. Cells were rinsed four times with PBS with Ca^2+ or Mg^2+, and then fixed in 4% paraformaldehyde (PFA) in PBS at pH 7.4 for 10 minutes at room temperature. Cells were then washed 3 times in PBS to remove PFA before fluorescent imaging. Fluorescent images were visualised using a Nikon TE2000E inverted fluorescent microscope (10× magnification, 0.3 numerical aperture), and captured using a Digital Sight CCD camera and Eclipse Net software (Nikon). Three images within each well from three independent experiments were taken for analysis and the total number of cells showing dye uptake from those that had been loaded were counted manually by masked observers.
# as §2, with “1987),” for “1987, Experimental cell research 168:422-430),”
compound,measurement,setting,value
"CC[C@H](C)[C@H](NC(=O)[C@H](Cc1ccc(O)cc1)NC(=O)[C@H](Cc1c[nH]c2ccccc12)NC(=O)[C@H](CCC(N)=O)NC(=O)[C@@H](NC(=O)[C@H](CC(C)C)NC(=O)[C@H](CC(C)C)NC(=O)[C@@H](N)Cc1ccccc1)[C@@H](C)CC)C(=O)N[C@@H](Cc1ccc(O)cc1)C(=O)NCC(=O)N[C@@H](Cc1ccccc1)C(=O)N[C@@H](CO)C(=O)N[C@@H](CC(C)C)C(=O)N[C@@H](CO)C(=O)N[C@@H](C)C(=O)N[C@H](C(=O)N[C@@H](Cc1ccc(O)cc1)C(=O)N[C@H](C(=O)N[C@@H](CS)C(=O)O)[C@@H](C)O)C(C)C [EL2a, FLLIQ WYIYG FSLSA VYTC] (H-FLLIQWYIYGFSLSAVYTC-OH; N-terminus and C-terminus assumed)",solubility in miliQ H2O,Solubility in miliQ H2O,soluble in miliQ H2O except for the EL2a sequence
"[Cl][La]([Cl])[Cl] [LaCl3, Lanthanum chloride, reference compound]",Connexin43 labelling per cell compared to untreated control (in words),[1],not significantly different to the control
same,"ATP release, % of the injury control",[2],47.8±13.6%
same,ATP release compared to injury control (in words),"[2]; hCMVEC, 100 μM, FIG. 3",significantly reduced ATP release
RFKPSLCTTDEV [scrambled peptide],"LY dye transfer, comparison in words",[3],no significant difference
SRPTEKT [mod-3],"LY dye transfer, % of the untreated control","[3]; 2-hour exposure, untreated control 100±4.5%",77.6±4.8%
same,"LY dye transfer, comparison in words",[3],comparable to the native Peptide5
same,ATP release compared to injury control (in words),"[2]; hCMVEC, 100 μM, FIG. 4",not significantly different to the injury control
same,ATP release compared to native Peptide5 (in words),"[2]; hCMVEC, 100 μM, FIG. 4",significantly greater ATP release
